Data on one substance can be found in article PMC12505970.

This experiment deals with FLAG-AuxB^W86A (S. aureus) (S. aureus). The experiment can be described thus: co-IP; FLAG-tagged bait from S. aureus membranes solubilised in 1% DDM (PBS pH 7.4, NaCl), α-FLAG M2 magnetic beads at 4°C, washes with decreasing DDM, elution with 3×FLAG peptide; Coomassie-stained gel, bands identified by LC-MS.

On to “PknB (endogenous, S. aureus) (from UniProt A0A0H2XGG5 1-664) (natural protein)”, for which the ratio of PknB pulled down, AuxB^W86A against wild type (densitometry) came out at 4.2 and the ratio of PknB pulled down, AuxB^W86A against wild type (peptide counts of PknB in the total eluate) amounted to 5.
